{
  "source": "the DeepSol protein solubility set",
  "data": [
    {"assay": "soluble on expression in E. coli; label from the status in PepcDB or PDB records", "values": [
      {"sequence": "MVEIYLFVNPLGGVCLEIEKEIIQLSVNDKKKIQLRFIPLLNMKTINEFLSRQHIPINDIKRRNRIFEDLYSAALDYKAAQLQGRKKGRQLLIGLQKAVAEDGLAYSPELSEELLLAAGGDIDMYRKDRQSDFVKESFQTDQKVAREMGIKQHPTAVVYNYTCENDFGILVENFENMDEIKQLCRVHPHNEPLLNQGDATFEFKRRSNYHFPNGHLHLL", "soluble on expression in E. coli": "not soluble"},
      {"sequence": "NKNAFLIVRGNLTYAHSEYLKYEDNTYDKEWWKYKIGYSPNQKWGYIAEGLFIDDAEVANSPVQFGDYKAGDIKYRDMNGDGVINSLDQVPIGHPTSPEINYGFGSTFSYKGFDINFQFHGSAQSSFWIDYDKMSPFFKDSKMSQKTNNQLVKFIANSYWSESNRNRYATWPRLSTTSVANNKELSTWFMRDGSFLRLKLVELGYTVPQKIVSKWGMSNLRLYMSSTNLFVLSKFKDWDVELAGNGLNYPLQRVFNIGVNVSF", "soluble on expression in E. coli": "not soluble"},
      {"sequence": "MSISGIGSYAASMLTPSRGSAGTSASAAATAADNTPATKSGSGGVQKTDFTQMTHKQLFDWVNSKIASGEMSFDESSTFISMTVSMPVDGSSMAPDDKQPVNFMQSVRDGMERALQTNDSDLFARLQTALHTMQRSQGEVRGVNMTV", "soluble on expression in E. coli": "not soluble"},
      {"sequence": "MMKKIAITCALLSSLVASSVWADAASDLKSRLDKVSSFHASFTQKVTDGSGAAVQEGQGDLWVKRPNLFNWHMTQPDESILVSDGKTLWFYNPFVEQATATWLKDATGNTPFMLIARNQSSDWQQYNIKQNGDDFVLTPKASNGNLKQFTINVGRDGTIHQFSAVEQDDQRSSYQLKSQQNGAVDAAKFTFTPPQGVTVDDQRK", "soluble on expression in E. coli": "soluble"},
      {"sequence": "MVKVTIIIPTYNPREHLIDTLLSVRTQNFTNIEVLIVDDGSTVDVSTLIKPYITADNIRCIRRKNGGTAAARNTGITNSTGEYIAFLDHDDIWLPDKVALQVEALDRNLSCGLTYCNFQILDEQTGSLINPHRQGEGGCMFEKFLYRNYITTASQIMVRRSCFDQLGLFDESLPIVDDYDFYLRLSRCYDIHYDPRVLTHWRSHQFNTSKNYEKTQLGRIKVKETALNRWALSDNQKKILFKGLRRDYYELAYYYLNSEKYSDARNYFRKAVPYRPVKSIVYYLSTCVPGLSYLNMKALKNDFLKLEHHHHHH", "soluble on expression in E. coli": "not soluble"},
      {"sequence": "PHLAFFAFAGALGFAGWRQSKKPVQDTQIEQVEALSQAMQEEDTPLTWDDIPHVHTLSLALGYRLVHLVNKDQGAPLSQRIRGVRRNLSEQVGFLLPEVRIRDNLSLKPNQYTISLNGEVIEQGFIEPERLMAIAVGDTYGEIDGILGSDPAYQLPAVWIEHQDKAKALNMGYQVVDDGTVIATHISKIMKTNLAELFTHDDVEAMTQRLTQQAPKLAEALAAALNPAQQLKVYRQLLLDQVPLKDIRTIANTMLESSENTKDPILLAADVRCALKRTLVNLIAGQKPELNVYALSDELEQMLLTSLQQAQASGTVVLDSFPIEPNILGQFQQNLPLIRQQLKQQGLPPILLVMPQLRPLLARYARTFTQGLAVLSYNEIPENKQINVVGNLG", "soluble on expression in E. coli": "not soluble"},
      {"sequence": "MASSVDEEALHQLYLWVDNIPLSRPKRNLSRDFSDGVLVAEVIKFYFPKMVEMHNYVPANSLQQKLSNWGHLNRKVLKRLNFSVPDDVMRKIAQCAPGVVELVLIPLRQRLEERQRRRKQGAGSLQELAPQDGSGYMDVGKVAFSISPSRLELSFCPSSCHL", "soluble on expression in E. coli": "not soluble"},
      {"sequence": "MGSDKIHHHHHHMKTSLGPIQYCWPKEKVVEFYEAVAQSSVPLVYLGETVCSRRRELKFSDYLALAQMLKAAGKEVVLSTLTLIEAQSEFLELKKQVENGEFTIEANDVGAIYLAKEHGIPFVCGPSINSYNAATLKKFASWGMQRFVMPLELSKAWLTQVLDDLAPRQVEVEVFGHGFMPLAHSARCFTARHKGLTKDKCQTICIENPEGLLVQTQEDQPLLRLNGIQTQSANYMDLCDQQTQMQALGVDYFRISPSSLASIALADKLPAKSASHDRQCNGYWHQLPGLALS", "soluble on expression in E. coli": "not soluble"},
      {"sequence": "MVKTTEVVSEVSKVAGVRPWAGIFVVEIQEDILADEFTFEALMRTLPLASQARILNKKSFHDRCSNLCSQLLQLFGCSIVTGLNFQELKFDKGSFGKPFLDNNRFLPFSMTIGEQYVAMFLVKCVSTDEYQDVGIDIASPCNYGGREELELFKEVFSEREFNGLLKASDPCTIFTYLWSLKESYTKFTGTGLNTDLSLIDFGAISFFPAEGASMCITLDEVPLIFHSQWFNNEIVTICMPKSISDKINTNRPKLYNISLSTLIDYFIENDGL", "soluble on expression in E. coli": "soluble"},
      {"sequence": "GAMDENDEGVRGTCEDASLCKRFAVSIGYWHDPYIQHFVRLSKERKAPEINRGYFARVHGVSQLIKAFLRKTECHCQIVNLGAGMDTTFWRLKDEDLLPSKYFEVDFPMIVTRKLHSIKCKPPLSSPILELHSEDTLQMDGHILDSKRYAVIGADLRDLSELEEKLKKCNMNTQLPTLLIAECVLVYMTPEQSANLLKWAANSFERAMFINYEQVNEGKSLESQKERLLSNGWETASAVDMMELYNRLPRAEVSRIESLEFLDEMELLEQLMRHYCLCWATKGGNELGLKEITY", "soluble on expression in E. coli": "soluble"},
      {"sequence": "MKLNLEREKKILLKNRNRYRYFHKPGVSIIVCTNKMKYIENIFSNYSRINYPIKEMIIILNKMNLNISKYKKVAERFSNVRIIKKPENVTLGKCLNYGVDISKYNYIFKMDDDDYYGENYICDEITSLIYTNSDIVGKASFFVYYEGYGRLEIMYPEGNEKYIPNVAGSTLLIKKSVFNKVRFRNISLAEDACFIEDCCKQGIKIYSCNRFNYVYFKHRSLNDHTWKISSEDLMKVTKKVGKYKNYLPIVTILEHHHHHH", "soluble on expression in E. coli": "not soluble"},
      {"sequence": "SLLPNILLTGTPGVGKTTLGKELASKSGLKYINVGDLAREEQLYDGYDEEYDCPILDEDRVVDELDNQMREGGVIVDYHGCDFFPERWFHIVFVLRTDTNVLYERLETRGYNEKKLTDNIQCEIFQVLYEEATASYKEEIVHQLPSNKPEELENNVDQILKWIEQWIKDHNS", "soluble on expression in E. coli": "soluble"},
      {"sequence": "AHHHHHHGSISETIRSGDWKGEKHVPVIEYEREGELVKVKVQVGKEIPHPNTTEHHIRYIELYFLPEGENFVYQVGRVEFTAHGESVNGPNTSDVYTEPIAYFVLKTKKKGKLYALSYCNIHGLWENEVTLE", "soluble on expression in E. coli": "soluble"},
      {"sequence": "MTDALGELEADVRADLAMIAHPGAAWLEPKIGPDGKPALDVLVVGAGQSGIAIGFGLMRSRVSNILLLDKAEEGKEGPWLTYARMPTLRSPKDYTGPDLDIPSLTYQSWHEARFGKQSWQELGLIERGHWAEYLLWLRRTVGLPVRNACELLEIAPASDGLLTARVKRAGEVETLYARKIVLATGQEGMGGWMIPEPLRHLPSGSVATVADDIDFEKLRGKRVAVIGAGASAFDNAATALEAGAAEVHLLCRRTQIQVIQPYRWLTFRGFLRHLSDLDDAWRWRFMRTILEMREGFPQATYDRCARHANFTLHEGAPVEAARETGKGVELQTPRGAIPADFVICGTGIDMSFAGRGELAAFAGNIATWADRYQPPSSERNERLGRFPYLADDYAFTERVPGETPWISDIHLFAIASTMSFGPSGSSINAMTTAVPKLVHGLTRGLFRADIARHWASLSAYDVPQAVVTRPARKTGELEHHHHHH", "soluble on expression in E. coli": "soluble"},
      {"sequence": "GKDAHVILRSNFTLSKNKILNWEDTKKPYTYLENNGYANNVQRGFVAMGLFKDQQDVEMSPTQFGTVRPGDIKYRDINGDGKITDDDKVPLFAYSGVPQLMYGIGAEFRYKSWTLNVLFKGTGRNKFLYGGSDGRNFDGYMPFNQKDKGNIMTIAYNPENRWISAEYSGNQATENPNARFPRLYYGKNENNTKPSTFWMGDARYLRLQELSLAYNLKVPALQRILGINSMNIQLMCENLAVWDSVNIFDPEQATSCGQAYPLPARYSLQLYLNF", "soluble on expression in E. coli": "not soluble"},
      {"sequence": "ATRVQAAQKEPASDVSDKLEQIREEIAKDPQSVFKYITISPVKKDDAIIGYRVSPGRDAALFNDVGLEPGDIAVQLNGIDLSDPSSSVQLMQVMSDPQELNLTVERDGQQYDIYIQL", "soluble on expression in E. coli": "not soluble"},
      {"sequence": "MSFVECPYHSPAERLVAEADEGGPSAITEILKELDECYERFSRETDGAQKRRMLHCVQRALIRSQELGDEKIQIVSQMVELVENRTRQVDSHVELFEAQQELGDTAGNSGKLEHHHHHH", "soluble on expression in E. coli": "not soluble"},
      {"sequence": "MTYDYVIGMDACKYFHHACVLDIDGTQVLSKRINQNEQSLRALFSAFSAYDHKVLVVVDQPNNIGRLTVAVAQDIGIDVRYLPGLAMRQLSRIHAGNAKTDIRDAYIIAHAAKNLPESLRSVDRVEEAFLQLKVLNGIDEDLARSYTRLINQIRSALVGCYPQFEQALRGQIIHRKWVLHLLARYGGPTKIKRLGKAKAAAFARRYKARNPEPVLDAIFAAISEQTVTIAGAHYAEMGVAMSAKDALLKLEHRQQIEKEVIELINDIPHTQFLLSMPGIGPKTAAQILMTAGDMSDFPSAGHLASYAGLSPRTNQSGTSIMSNSLNRAGNKKLKNALWQSSFASIRFHERSRQFYERKRREGKRHNAAVVALARRRLNVLYAMMRNHEHYHDPAPSQEDLAA", "soluble on expression in E. coli": "not soluble"},
      {"sequence": "MGHHHHHHSHMNIQKDGKNVTSRREWIEKLVESKGKVDIEELASHFGVSSMTIRRDLMHLEEHNKLIRTHGGAVAPSSLIGETPYAQKQTEHLMEKQLIAKQASTLVPEGATILVDSGTTTLELIKLLKDRNDLTIVTNDITIAAELVNASPKCIVTGGELQLGVGALFGPQTEGMIRELHVDLFFLGAHAVDEAAGVTAPTLEKAAIKKRMMEAAQTTWLICDSSKFSKRAFANVCQLTKLEGIITDANFLTSFKHENYHDNMVIAQA", "soluble on expression in E. coli": "soluble"},
      {"sequence": "MSLRNEVQFELFGDYALFTDPLTKIGGEKLSYSVPTYQALKGIAESIYWKPTIVFVIDELRVMKPIQMESKGVRPIEYGGGNTLAHYTYLKDVHYQVKAHFEFNLHRPDLAFDRNEGKHYSILQRSLKAGGRRDIFLGARECQGYVAPCEFGSGDGFYDGQGKYHLGTMVHGFNYPDETGQHQLDVRLWSAVMENGYIQFPRPEDCPIVRPVKEMEPKIFNPDNVQSAEQLLHDLGGEEGHHHHHH", "soluble on expression in E. coli": "soluble"},
      {"sequence": "MEVKALAHAKNDSVAVATDDLKEGEEIQVAFLDNNEKTKITTAEVIPLGHKISLKDIKKGENVIEYGEVIGAATKDIKRGEHVHIHNIKSLRW", "soluble on expression in E. coli": "not soluble"},
      {"sequence": "MGSDKIHHHHHHMNNIQAIRKKVETQIDDLQNKTDEIAEFNQAKVLDAFQENKVSDFHFHPSTGYGYDDEGRDTLERVYATVFKTEAALVRPQIISGTHAISTVLFGILRPDDELLYITGQPYDTLEEIVGIRKQGQGSLKDFHIGYSSVPLLENGDVDFPRIAKKMTPKTKMIGIQRSRGYADRPSFTIEKIKEMIVFVKNINPEVIVFVDNCYGEFVEYQEPPEVGADIIAGSLIKNPGGGLAKTGGYIAGKEALVDLCGYRLTTPGIGREAGASLYSLLEMYQGFFLAPHVTAQAIKGARFTAAMLAEFGVEADPVWDAPRTDLIQSVSFHNKEKMVAFAQAIQAASPVNAHVLPIGAYMPGYEDDVIMAAGTFIQGASLELTADGPIREPYQLYVQGGLTYEHIKIAVTRAIQKIV", "soluble on expression in E. coli": "not soluble"},
      {"sequence": "MGHHHHHHSHMSDWLEHSVQVEVAVPVARAWELWSDLEQMPRWMKWIDSVQVQKDDPELSRWKLASQGFEFSWLSRITRLVPQQLIQWESVDGLPNRGAIRFYDRQDHSIVRLSISYAIPGGLGPLMDKLFLGRIVEGTLKADLDRFRHYAESPR", "soluble on expression in E. coli": "not soluble"},
      {"sequence": "MTIYHFVGIKGSGMSALAQILHDKGFQVQGSDVDKYFFTQKALEEKQIPIMTFSADNIKEGLTIIAGNAFPDTHEEIERANELNLPVIRYHKFLGQLIDGYTSIAITGSHGKTSTTGLLSHVVGAIRPTSYLIGDGTGSGTKDAKYFALEACEYQRHFLAYKPTYAIMTNIDWDHPDYFKSVDDVFNAFETLGKQVKKAVFALGDDVELRKLSLDVPIIYFGFGSENEFQAKNVKKETTGTKFDVYHRDEFLASFEIPAYGDHNVLNALSVIALCDYEGLPVDEVKKELKTFEGVKRRFSITEKGNQVLVDDYAHHPSEIRATVNAARQKYPNKKIVAVFQPHTFTRTRTFLQGFADSLNLADEVYLCDIFGSAREKTGNLTIADLAHKTKGNHIIKEEHTEELLQYPEAVILFMGAGDVQKFQAAYEKVLDNEIVANEVLKKSAIN", "soluble on expression in E. coli": "not soluble"}
    ]}
  ]
}
